Among the data in publication PMC8980021 are Kd values, retold here.

The Kd is the constant that tells how readily two partners part at equilibrium. Lower therefore signals a tighter complex.

Test [1] addresses ALPN-202 (davoceticept), variant CD80 IgV domain Fc fusion (human) (UniProt P33681). Briefly: SPR; Biacore 3000, CM5 chip with goat anti-human IgG capture antibody; ALPN-202 (120 RU) or WT CD80 ECD-Fc (160 RU) captured; monomeric human CD28, CTLA-4, PD-L1 as analytes; 240 s association, 600 s dissociation, 30 uL/min; global 1:1 fit; for the weak interactions a minimal KD with theoretical Rmax fixed. Background: SPR reads the build-up and loss of mass on a sensor chip optically.

Test [2] concerns the target wild type human CD80 extracellular domain Fc fusion (WT CD80 ECD-Fc) (human) (UniProt P33681). The test is described as above.

Turning to “recombinant monomeric human CD28 (from UniProt P10747 19-152) (receptor)”, the values for the Kd in test [1] and in test [2] were 9.9 nM and above 2.6 µM, respectively.

Take “recombinant monomeric human PD-L1 (from UniProt Q9NZQ7 19-238) (ligand)”: the Kd in test [2] was above 37 µM.
